Experimental data published in PMC9399903 (Nature structural & molecular biology, 2022).

Tests used:
[1] = target: the molecule itself; assay: SEC
[2] = target: wild-type yeast core particle (CP, 20S proteasome) (S. cerevisiae (endogenous in yeast)) (UniProt P23639)
Chain of wild-type yeast core particle (CP, 20S proteasome) (S. cerevisiae (endogenous in yeast)) (P23639 whole entry, looked up): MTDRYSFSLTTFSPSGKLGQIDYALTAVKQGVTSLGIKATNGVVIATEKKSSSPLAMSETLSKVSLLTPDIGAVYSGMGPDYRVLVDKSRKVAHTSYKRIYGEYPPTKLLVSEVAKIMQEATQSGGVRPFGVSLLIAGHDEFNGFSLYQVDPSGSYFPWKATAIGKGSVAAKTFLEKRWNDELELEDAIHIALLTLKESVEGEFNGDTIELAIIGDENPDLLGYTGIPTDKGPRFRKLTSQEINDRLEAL

inhibition of CP peptidase activity at 2-fold molar excess of Fub1 [2]: 50%
B1: Fub1 (S. cerevisiae PI31), endogenous untagged (natural protein, UniProt P25659 1-250, looked up)
chain: MIENKVELVAELVLESIGKTEVVSRHTEGTKSCQVSFRIKDSPSEKGSTSFLSELVVIQTLDDNDKYTVVIRHGTSITMACVVGYSDFKLPTELKWPLERESLPVEPDLKPIMTQLKRQTAGSADMPKFDDEYQAQARQNQGTAPLNPYPGLTVTEPSFANPAGGYADGDLYPVGTSHPDWSGGLPNPLGNPSSQGGMIFDPNRRPAPRREDMPPGWMPGSKYDEPFGPGSGGFGGSGSGGFGGSGSGFI
stoichiometry N [1]: 2
